Laboratory results from patent publication US20080274055A1 (US Dept. of Health and Human Services, published 2008).
Substitutions are numbered along the chain they refer to.

T1: carcinoembryonic antigen (CEA) (human, UniProt P06731 35-685)
T1 sequence (looked up): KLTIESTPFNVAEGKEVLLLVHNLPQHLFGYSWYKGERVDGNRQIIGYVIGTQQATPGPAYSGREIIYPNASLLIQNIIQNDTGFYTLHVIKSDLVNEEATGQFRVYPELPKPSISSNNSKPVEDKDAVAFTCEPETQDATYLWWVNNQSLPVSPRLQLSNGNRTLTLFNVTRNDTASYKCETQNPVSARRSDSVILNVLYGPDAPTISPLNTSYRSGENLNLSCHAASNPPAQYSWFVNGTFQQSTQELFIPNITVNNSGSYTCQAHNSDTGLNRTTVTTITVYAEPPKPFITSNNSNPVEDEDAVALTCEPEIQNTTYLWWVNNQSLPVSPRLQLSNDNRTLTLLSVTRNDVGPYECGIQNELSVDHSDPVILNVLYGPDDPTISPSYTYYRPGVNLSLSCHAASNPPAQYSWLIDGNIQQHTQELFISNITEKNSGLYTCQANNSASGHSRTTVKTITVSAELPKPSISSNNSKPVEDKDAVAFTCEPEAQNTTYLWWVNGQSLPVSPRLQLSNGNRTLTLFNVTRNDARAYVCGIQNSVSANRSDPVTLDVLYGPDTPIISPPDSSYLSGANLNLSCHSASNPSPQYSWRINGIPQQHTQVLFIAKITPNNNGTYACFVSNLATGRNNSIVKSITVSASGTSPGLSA

B1: HuCOL-1AbrCDR (antibody, V domains shown)
VH: EVQLVQSGAEVVKPGASVKMSCKASGFNIKDYYMHWVKQRPEQGLEWIGWIDPENGDTEYAQKFQGKATMTTDTSTSTAYLELSSLRSEDTAVYYCNTRGLSTMITTRWFFDVWGAGTLVTVSS
VL: DIVLTQSPASLAVSLGERATINCKSSQSVSASGYSYMHWYQQKPGQPPKLLIYLASNLQSGVPARFSGSGSGTDFTLTISSVQAEDVATYYCQHSRELPTFGGGTKLEIK
notes: also called FRV1; HuCOL-1 24,25,27L/61H
B2: HuCOL-1AbrCDR framework variant 4 (FRV4) (antibody, V domains shown)
VH: B1 VH with M20V, K38R, I48M, K67R, A79V, L81M
VL: B1 VL
notes: also called HuCOL-1FRV4
B3: HuCOL-1AbrCDR framework variant 10 (FRV10) (antibody, V domains shown)
VH: B1 VH with E1Q, V12K, M20V, F27Y, K38R, I48M, K67R, A68V, A79V, L81M
VL: B1 VL
notes: also called HuCOL-1FRV10
B4: HuCOL-1 (antibody, V domains shown)
VH: B1 VH with R40A, E42G, Q62P
VL: B1 VL with K24R, S25A, Q27K
notes: Whole humanized antibody; also called humanized COL-1; ATCC PTA-4661
B5: HuCOL-1AbrCDR framework variant 7 (FRV7) (antibody, V domains shown)
VH: B1 VH with M20V, F27Y, K38R, I48M, K67R, A68V, A79V, L81M
VL: B1 VL
notes: also called HuCOL-1FRV7; FR7
B6: FRV12 (antibody, name in Kabat numbering, V domains shown)
VH: B1 VH with E1Q, V12K, M20V, F27Y, K38R, I48M, K67R, A68V, A79V, L81M
VL: B1 VL with L4M, A64D, V82L, T89V, L107V
notes: Kabat positions (see notes of FRV2 and FRV8); also called HuCOL-1AbrCDR framework variant 12
B7: FRV9 (antibody, name in Kabat numbering, V domains shown)
VH: B1 VH with M20V, F27Y, K38R, I48M, K67R, A68V, A79V, L81M
VL: B1 VL with L4M, A64D, V82L, T89V, L107V
notes: Kabat positions (see notes of FRV2 and FRV8); also called HuCOL-1AbrCDR framework variant 9
B8: FRV11 (antibody, name in Kabat numbering, V domains shown)
VH: B1 VH with E1Q, V12K, M20V, F27Y, K38R, I48M, K67R, A68V, A79V, L81M
VL: B1 VL with L4M, V82L, L107V
notes: Kabat positions (see notes of FRV2 and FRV8); also called HuCOL-1AbrCDR framework variant 11
B9: FRV2 (antibody, name in Kabat numbering, V domains shown)
VH: B1 VH
VL: B1 VL with L4M, V82L, L107V
notes: also called HuCOL-1AbrCDR framework variant 2
B10: FRV6 (antibody, name in Kabat numbering, V domains shown)
VH: B1 VH with M20V, K38R, I48M, K67R, A79V, L81M
VL: B1 VL with L4M, A64D, V82L, T89V, L107V
notes: Kabat positions (see notes of FRV2 and FRV5); also called HuCOL-1AbrCDR framework variant 6
B11: FRV5 (antibody, name in Kabat numbering, V domains shown)
VH: B1 VH with M20V, K38R, I48M, K67R, A79V, L81M
VL: B1 VL with L4M, V82L, L107V
notes: Kabat positions; also called HuCOL-1AbrCDR framework variant 5
B12: FRV8 (antibody, name in Kabat numbering, V domains shown)
VH: B1 VH with M20V, F27Y, K38R, I48M, K67R, A68V, A79V, L81M
VL: B1 VL with L4M, V82L, L107V
notes: Kabat positions; also called HuCOL-1AbrCDR framework variant 8
B13: FRV3 (antibody, name in Kabat numbering, V domains shown)
VH: B1 VH
VL: B1 VL with L4M, A64D, V82L, T89V, L107V
notes: Kabat positions (see note of FRV2); also called HuCOL-1AbrCDR framework variant 3
B14: murine COL-1 monoclonal antibody (antibody, V domains shown)
VH: EVQLQQSGAELVRSGASVKMSCTASGFNIKDYYMHWVKQRPEQGLEWIGWIDPENGDTEYAPKFQGKATMTTDTSSNTAYLQLSSLTSEDTAVYYCNTRGLSTMITTRWFFDVWGAGTTVAVSS
VL: DIVLTQSPASLTVSLGLRATISCRASKSVSASGYSYMHWYQQRPGQPPKLLIYLASNLQSGVPARFSGSGSGTDFTLNIHPVEEEDAATYYCQHSRELPTFGGGTKLEIK
notes: Whole murine antibody; also called mCOL-1; muCOL-1
B15: chimeric COL-1 (antibody, V domains shown)
VH: B14 VH
VL: B14 VL

Target: anti-V region antibodies to COL-1 present in the serum of patient two
Experiment: SPR competition, serum of patient two; reference HuCOL-1

Row | fold higher IC50 than HuCOL-1 [fold] | Binder
1 | 1.5 | B1

Target: anti-V region antibodies to COL-1 present in the serum of patient one
Experiment: SPR competition, serum of patient one; reference HuCOL-1

Row | fold higher IC50 than HuCOL-1 [fold] | Binder
2 | 1.5 | B1

Target: T1, carcinoembryonic antigen (CEA)
Experiment: competition RIA against 125I-mCOL-1 on CEA; modified Scatchard
Description: (§1) Competition RIA: The relative antigen-binding affinity of HuCOL-1, HuCOL-1AbrCDR and HuCOL-1AbrCDR antibodies with framework-substitutions was determined using a competition RIA as described previously (De Pascalis et al., J Immunol., 169:3076-3084, 2002). Twenty-five μl of serial dilutions of the antibodies to be tested, as well as mCOL-1, chimeric COL-1, and HuCOL-1 (positive controls) and HuIgG (negative control), prepared in 1% BSA in PBS, were added to microtiter plates containing 10 ng of […] saturated with 5% BSA in PBS. ¹²⁵I-labeled mCOL-1 (100,000 cpm in 25 μl) was then added to each well. After an overnight incubation at 4° C., the plates were washed and the bound radioactivity was counted in a γ-scintillation counter.
(§2) Competition RIA experiments were performed to determine the relative CEA-binding affinity of chimeric COL-1, HuCOL-1, HuCOL-1AbrCDR, and the different HuCOL-1AbrCDR-derived antibodies. Serial dilutions of unlabeled antibodies were used to compete with the binding of ¹²⁵I-mCOL-1 (FIGS. 4A, 4B and 4C) to CEA.

Row | Ka [M⁻¹] | Binder
3 | 2.32e+08 | B1
4 | 2.51e+08 | B2
5 | 3.04e+08 | B3
6 | 2.78e+08 | B4
7 | 3.07e+08 | B5

Target: T1, carcinoembryonic antigen (CEA)
Experiment: competition RIA against 125I-mCOL-1; reference of the fold not named
Description: as §1, §2

Row | Fold Difference [fold] | Binder
8 | 1.2 | B1
9 | 5.6 | B6
10 | 4.5 | B7
11 | 4.5 | B8
12 | 1.1 | B2
13 | 9.5 | B9
14 | 0.9 | B3
15 | 2.8 | B10
16 | 1 | B4
17 | 2.7 | B11
18 | 0.9 | B5
19 | 3.6 | B12
20 | 8.6 | B13
21 | 1 | B14
22 | 1.4 | B15

Target: anti-V region antibodies to COL-1 present in the serum of patient two
Experiment: SPR competition; reference HuCOL-1; lower end tied to serum EM by Table IV (9.7 against 1.9)

Row | fold higher IC50 than HuCOL-1 [fold] | Binder
23 | 5 to 6 | B3

Target: T1, carcinoembryonic antigen (CEA)
Experiment: competition RIA, unlabeled antibody against 125I-mCOL-1 on CEA; modified Scatchard
Description: as §1, §2

Row | Ka [M⁻¹] | Binder
24 | 2.3e+08 | B1
25 | 4.9e+07 | B6
26 | 6.1e+07 | B7
27 | 6.1e+07 | B8
28 | 2.51e+08 | B2
29 | 2.9e+07 | B9
30 | 3.04e+08 | B3
31 | 1e+08 | B10
32 | 2.78e+08 | B4
33 | 1.01e+08 | B11
34 | 3.07e+08 | B5
35 | 7.7e+07 | B12
36 | 3.2e+07 | B13
37 | 2.74e+08 | B14
38 | 1.99e+08 | B15

Target: anti-V region antibodies to COL-1 present in the serum of patient one
Experiment: SPR competition; reference HuCOL-1; upper end tied to serum MB by Table IV (28.5 against 4.9)

Row | fold higher IC50 than HuCOL-1 [fold] | Binder
39 | 5 to 6 | B3

Target: anti-V region antibodies to COL-1 present in the serum of patient two
Experiment: SPR competition; soluble antibody against immobilized HuCOL-1 for serum anti-V region antibodies

Row | IC50 [nM] | Binder
40 | 2.9 | B1
41 | 9.7 | B3
42 | 1.9 | B4

Target: anti-V region antibodies to COL-1 present in the serum of patient one
Experiment: as above

Row | IC50 [nM] | Binder
43 | 6.9 | B1
44 | 28.5 | B3
45 | 4.9 | B4

Target: T1, carcinoembryonic antigen (CEA)
Experiment: competition RIA: unlabeled antibody against 125I-mCOL-1 for binding to CEA, % inhibition against amount competitor Ab (ng), log axis
Description: FIGS. 4A, 4B, and 4C are a series of graphs of a competition radioimmunoassay of HuCOL-1AbrCDR framework variants using ¹²⁵I-mCOL-1. Serial dilutions of unlabeled antibodies were used to compete with the binding of ¹²⁵ImCOL-1. The data was divided into three individual graphs to facilitate viewing. FIG. 4A compares the binding of unlabeled murine COL-1 (muCOL-1), chimeric COL-1 (cCOL-1), HuCOL-1, FRV1 (HuCOL-1AbrCDR), and human IgG (HuIgG). FIG. 4B compares the binding of unlabeled murine HuCOL-1AbrCDR, FRV2, FRV3, FRV4, FRV7, and FRV10. FIG. 4C compares the binding of unlabeled murine HuCOL-1AbrCDR, FRV5, FRV6, FRV8, FRV9, FRV11, and FRV12.
as §1, §2

Row | IC50 (read off the curve) [ng] | Binder
46 | ~30 | B11
47 | ~20 | B14
48 | ~30 | B15
